From patent publication US20230280353A1, “DETECTION SYSTEM OF INTERACTION BETWEEN KNOWN MOLECULES AND PROTEINS BASED ON COVALENT CONNECTION AND IDENTIFICATION OR VERIFICATION METHOD THEREOF” (SHANGHAI JIAO TONG UNIVERSITY, priority 2021, published 2023) come the findings set out here.

The procedure of series [1]:
The SA-Pup purified from Step 1 was added into Buffer R (50 mM Tris, PH 7.5, 100 mM NaCl, 20 mM MgCl2, 10% (v/v) glycerol) and high salt buffers (50 mM Tris-HCl, PH 8.0, 8 M urea, 15 mM DTT, 1 mM EDTA, PH 8.0) containing 8 M urea, respectively. After mixing, the supernatant was absorbed, and then biotin agarose beads were added to rotate and incubate at room temperature for 1 hour, and then the supernatant was absorbed. The supernatant was detected by SDS-PAGE.

Series [2] is described as follows: Biotin binding activity of SAm-Pup^E (SDS-PAGE). Conditions: incubated with biotin at room temperature 1 hour. Here is the method: The SAm-Pup^E protein and wild-type streptavidin (SA) purified in step 1 were mixed with biotin (A600078) and incubated at room temperature for 1 hour, and then detected by SDS-PAGE.

B1: SAm-Pup^E: mutated streptavidin-Pup tetramer, amino acid sequence SEQ ID NO: 5 (protein)
chain: MGAEAGITGTWYNQLGSTFIVTAGADGALTGTYESAVGNAESRYVLTGRYDSAPATDGSGTALGWTVAWRNNYRNAHSATTWSGQYVGGAEARINTQWLLTSGTTEANAWRSTLVGHDTFTRVRPSAASGGGGGSGSHHWGGGGSLTEETDDLLDEIDDVLEENAEDFVRAYVQRGGE
modifications: tetramer; The sequence is synthesized.
On to B1, for which, in series [1], the “stability of binding to biotin agarose beads” value is listed as “can still bind stably in high salt buffer”. The biotin-binding activity entry in series [2] is given as “the same biotin-binding activity as wild-type streptavidin”.
